Tests used:
[1] = target: T1, human MUC1 antigen in plate ELISA (KCM lysate) (human, UniProt P15941 24-1255, limits assumed, tumor-associated glycosylation, not specified further); experiment: sandwich ELISA: hybridoma antibody coat, KCM lysate 10 µg/mL, test antibody in 5-fold dilutions, HRP goat anti-human IgG, OD450
[2] = target: T2, human MUC1, tumor-associated form (tMUC), on tumor cells and tumor tissue (human, UniProt P15941 24-1255, tumor-associated (aberrant) glycosylation, not specified further); experiment: flow cytometry of particle uptake, 12 hours at 37 °C; KCM cells (human MUC1) against KCKO cells (MUC1 knockout)
T2 construct: also called tMUC1; tumor-associated glycosylated MUC1

[3] = target: T1, human MUC1 antigen in plate ELISA (KCM …); experiment: sandwich ELISA: hybridoma antibody coat, KCM lysate 10 µg/mL, test antibody in 5-fold dilutions, HRP goat anti-human IgG

T1 sequence (P15941 other isoform, or with tags, fused parts or gaps limits assumed): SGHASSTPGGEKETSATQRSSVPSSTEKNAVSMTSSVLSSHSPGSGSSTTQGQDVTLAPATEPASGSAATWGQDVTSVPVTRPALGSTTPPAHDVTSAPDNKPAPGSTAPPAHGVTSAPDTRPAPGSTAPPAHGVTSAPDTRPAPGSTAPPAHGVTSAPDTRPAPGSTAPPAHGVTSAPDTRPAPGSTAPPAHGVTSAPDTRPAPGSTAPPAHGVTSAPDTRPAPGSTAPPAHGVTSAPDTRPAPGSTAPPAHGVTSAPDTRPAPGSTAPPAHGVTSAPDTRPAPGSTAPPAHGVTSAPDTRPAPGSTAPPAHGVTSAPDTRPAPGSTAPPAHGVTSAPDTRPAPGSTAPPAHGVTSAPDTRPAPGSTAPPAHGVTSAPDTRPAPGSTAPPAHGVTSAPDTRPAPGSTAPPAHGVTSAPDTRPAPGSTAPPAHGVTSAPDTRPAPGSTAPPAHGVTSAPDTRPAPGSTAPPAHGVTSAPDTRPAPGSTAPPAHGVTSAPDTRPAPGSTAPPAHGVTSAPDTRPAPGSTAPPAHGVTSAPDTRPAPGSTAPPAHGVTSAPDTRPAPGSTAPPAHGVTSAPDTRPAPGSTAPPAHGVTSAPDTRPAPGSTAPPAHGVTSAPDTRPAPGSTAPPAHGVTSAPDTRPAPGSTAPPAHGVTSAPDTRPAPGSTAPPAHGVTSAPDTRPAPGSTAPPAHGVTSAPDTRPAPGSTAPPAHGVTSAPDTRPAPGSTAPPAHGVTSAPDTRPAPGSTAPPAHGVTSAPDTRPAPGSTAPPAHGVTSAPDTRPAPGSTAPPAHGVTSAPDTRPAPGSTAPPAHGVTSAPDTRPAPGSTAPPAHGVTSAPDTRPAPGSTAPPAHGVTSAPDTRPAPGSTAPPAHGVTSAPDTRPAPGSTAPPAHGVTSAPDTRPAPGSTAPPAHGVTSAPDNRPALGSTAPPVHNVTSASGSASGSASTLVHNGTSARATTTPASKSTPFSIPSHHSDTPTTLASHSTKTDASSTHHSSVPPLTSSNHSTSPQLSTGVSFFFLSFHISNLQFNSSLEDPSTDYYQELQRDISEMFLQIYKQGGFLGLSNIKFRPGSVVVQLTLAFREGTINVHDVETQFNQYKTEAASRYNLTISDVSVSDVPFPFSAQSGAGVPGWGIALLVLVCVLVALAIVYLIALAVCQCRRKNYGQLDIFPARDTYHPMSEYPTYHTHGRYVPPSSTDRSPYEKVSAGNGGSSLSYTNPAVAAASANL
T2 sequence (P15941 other isoform, or with tags, fused parts or gaps limits assumed): as above

Binder | EC50 [1] [µg/mL] | other results
Chimeric parental antibody (H4965 + L4965) (antibody, IgG1, V domains shown, also called pp 9854; Chimeric Parental HC) VH: EVQLQQSGGERATPGASVKMSCKTSGYTFTNYWMHWVKQRPGQGLEWIGYINPSSGYTQYNQKFKDKATLTADKSSSTAYIQLSSLTSEDSAVYYCSTYYGDYLFPYWGQGTLVTVSA VL: DVLMTQTPLSLPVSLGDQASISCRSSQDIVYGNGNTYLEWYLQKPGQSPKLLIYKVSNRFSGVPDRFSGSGSGTDFTLKISRVEAEDLGVYYCFQGSHVPYTFGGGTKLEIKR | 0.006 | 
Humanized HC2 + LC2 (antibody, human IgG2, kappa, V domains shown, Listing: IgG2 heavy chain; also called H6246 + L6246) VH: QVQLVQSGAEVKKPGASVKVSCKASGYTFTNYWMHWVRQAPGQGLEWMGYINPSSGYTQYNQKFQGRVTMTADTSTSTVYMELSSLRSEDTAVYYCSTYYGDYLFPYWGQGTLVTVSS VL: DVVMTQSPLSLPVTLGQPASISCRSSQDIVYGNGNTYLEWYQQRPGQSPRLLIYKVSNRFSGVPDRFSGSGSGTDFTLKISRVEAEDVGVYYCFQGSHVPYTFGQGTKLEIKR | 0.032 | 
TAB-004 antibody-conjugated mesoporous silica nanoparticle (antibody, V domains shown, antibody coupled by EDC to the carboxylic acid groups of a PEG-2K linker on an FITC-labelled mesoporous silica nanoparticle; site not stated, Many copies of TAB-004 on one particle; also called TAB-004-MSN) VH: EVQLQQSGGERATPGASVKMSCKTSGYTFTNYWMHWVKQRPGQGLEWIGYINPSSGYTQYNQKFKDKATLTADKSSSTAYIQLSSLTSEDSAVYYCSTYYGDYLFPYWGQGTLVTVSA VL: DVLMTQTPLSLPVSLGDQASISCRSSQDIVYGNGNTYLEWYLQKPGQSPKLLIYKVSNRFSGVPDRFSGSGSGTDFTLKISRVEAEDLGVYYCFQGSHVPYTFGGGTKLEIKR |  | fold increase in uptake by KCM cells as compared to KCKO cells [2]: 8 fold
Humanized HC3 + LC3 (antibody, human IgG2, kappa, V domains shown, Listing: IgG2 heavy chain; also called H6247 + L6247) VH: EVQLVQSGAEVKKPGASVKVSCKASGYTFTNYWMHWVRQAPGQGLEWMGYINPSSGYTQYNQKFQGWVTMTADTSISTAYMELSRLRSDDTAVYYCSTYYGDYLFPYWGQGTLVTVSS VL: DIVLTQSPLSLPVTLGQPASISCRSSQDIVYGNGNTYLEWYQQRPGQSPRLLIYKVSNRFSGVPDSFSGSGSGTDFTLTISRVEAEDVGIYYCFQGSHVPYTFGEGTKLEIKR | 0.004 | 
Humanized HC3 + LC2 (antibody, human IgG2, kappa, V domains shown, Listing: IgG2 heavy chain; also called H6247 + L6246) VH: EVQLVQSGAEVKKPGASVKVSCKASGYTFTNYWMHWVRQAPGQGLEWMGYINPSSGYTQYNQKFQGWVTMTADTSISTAYMELSRLRSDDTAVYYCSTYYGDYLFPYWGQGTLVTVSS VL: DVVMTQSPLSLPVTLGQPASISCRSSQDIVYGNGNTYLEWYQQRPGQSPRLLIYKVSNRFSGVPDRFSGSGSGTDFTLKISRVEAEDVGVYYCFQGSHVPYTFGQGTKLEIKR | 0.007 | 
Humanized HC3 + LC1 (antibody, human IgG2, kappa, V domains shown, Listing: IgG2 heavy chain; also called H6247 + L6245) VH: EVQLVQSGAEVKKPGASVKVSCKASGYTFTNYWMHWVRQAPGQGLEWMGYINPSSGYTQYNQKFQGWVTMTADTSISTAYMELSRLRSDDTAVYYCSTYYGDYLFPYWGQGTLVTVSS VL: DVVMTQSPLSLPVTLGQPASISCRSSQDIVYGNGNTYLEWFQQRPGQSPRLLIYKVSNRFSGVPDRFSGSGSGTDFTLKISRVEAEDVGVYYCFQGSHVPYTFGQGTKLEIKR |  | binding result [3]: no binding
Humanized HC2 + LC3 (antibody, human IgG2, kappa, V domains shown, Listing: IgG2 heavy chain; also called H6246 + L6247) VH: QVQLVQSGAEVKKPGASVKVSCKASGYTFTNYWMHWVRQAPGQGLEWMGYINPSSGYTQYNQKFQGRVTMTADTSTSTVYMELSSLRSEDTAVYYCSTYYGDYLFPYWGQGTLVTVSS VL: DIVLTQSPLSLPVTLGQPASISCRSSQDIVYGNGNTYLEWYQQRPGQSPRLLIYKVSNRFSGVPDSFSGSGSGTDFTLTISRVEAEDVGIYYCFQGSHVPYTFGEGTKLEIKR | 0.027 | 
Humanized HC1 + LC2 (antibody, human IgG2, kappa, V domains shown, Listing: IgG2 heavy chain; also called H6245 + L6246) VH: QVQLVQSGAEVKKPGASVKVSCKASGYTFTNYWMHWVRQAPGQGLEWMGYINPSSGYTQYNQKFQGRVTMTRDTSTSTVYMELSSLRSEDTAVYYCSTYYGDYLFPYWGQGTLVTVSS VL: DVVMTQSPLSLPVTLGQPASISCRSSQDIVYGNGNTYLEWYQQRPGQSPRLLIYKVSNRFSGVPDRFSGSGSGTDFTLKISRVEAEDVGVYYCFQGSHVPYTFGQGTKLEIKR | 0.055 | 
Humanized HC1 + LC1 (antibody, human IgG2, kappa, V domains shown, also called H6245 + L6245) VH: QVQLVQSGAEVKKPGASVKVSCKASGYTFTNYWMHWVRQAPGQGLEWMGYINPSSGYTQYNQKFQGRVTMTRDTSTSTVYMELSSLRSEDTAVYYCSTYYGDYLFPYWGQGTLVTVSS VL: DVVMTQSPLSLPVTLGQPASISCRSSQDIVYGNGNTYLEWFQQRPGQSPRLLIYKVSNRFSGVPDRFSGSGSGTDFTLKISRVEAEDVGVYYCFQGSHVPYTFGQGTKLEIKR |  | binding result [3]: no binding
Humanized HC2 + LC1 (antibody, human IgG2, kappa, V domains shown, Listing: IgG2 heavy chain; also called H6246 + L6245) VH: QVQLVQSGAEVKKPGASVKVSCKASGYTFTNYWMHWVRQAPGQGLEWMGYINPSSGYTQYNQKFQGRVTMTADTSTSTVYMELSSLRSEDTAVYYCSTYYGDYLFPYWGQGTLVTVSS VL: DVVMTQSPLSLPVTLGQPASISCRSSQDIVYGNGNTYLEWFQQRPGQSPRLLIYKVSNRFSGVPDRFSGSGSGTDFTLKISRVEAEDVGVYYCFQGSHVPYTFGQGTKLEIKR |  | binding result [3]: no binding
Humanized HC1 + LC3 (antibody, human IgG2, kappa, V domains shown, Listing: IgG2 heavy chain; also called H6245 + L6247) VH: QVQLVQSGAEVKKPGASVKVSCKASGYTFTNYWMHWVRQAPGQGLEWMGYINPSSGYTQYNQKFQGRVTMTRDTSTSTVYMELSSLRSEDTAVYYCSTYYGDYLFPYWGQGTLVTVSS VL: DIVLTQSPLSLPVTLGQPASISCRSSQDIVYGNGNTYLEWYQQRPGQSPRLLIYKVSNRFSGVPDSFSGSGSGTDFTLTISRVEAEDVGIYYCFQGSHVPYTFGEGTKLEIKR | 0.051 | 

Source: patent US12605469B2, “Tumor specific antibody conjugates and uses therefor” (The University of North Carolina at Charlotte, priority 2019, dated 2026)
